*1 amine or outer side, *2 acyl side, *3 side chain or, on linkers, in order; H or OH if unused. Where no end group is shown, it is not given here. Side-chain parts run from the residue outwards. [ ]: non-standard residue; d: D form. The star is where a group is joined. γGlu = O=C(O)[C@H](CCC(=O)[*:2])N[*:1]; Palmitoyl = CCCCCCCCCCCCCCCC(=O)*; Dab = NCC[C@H](N)C(=O)O; Aib = CC(C)(N)C(=O)O
T1: GIP receptor (UniProt P48546 22-466)
T1 sequence (looked up): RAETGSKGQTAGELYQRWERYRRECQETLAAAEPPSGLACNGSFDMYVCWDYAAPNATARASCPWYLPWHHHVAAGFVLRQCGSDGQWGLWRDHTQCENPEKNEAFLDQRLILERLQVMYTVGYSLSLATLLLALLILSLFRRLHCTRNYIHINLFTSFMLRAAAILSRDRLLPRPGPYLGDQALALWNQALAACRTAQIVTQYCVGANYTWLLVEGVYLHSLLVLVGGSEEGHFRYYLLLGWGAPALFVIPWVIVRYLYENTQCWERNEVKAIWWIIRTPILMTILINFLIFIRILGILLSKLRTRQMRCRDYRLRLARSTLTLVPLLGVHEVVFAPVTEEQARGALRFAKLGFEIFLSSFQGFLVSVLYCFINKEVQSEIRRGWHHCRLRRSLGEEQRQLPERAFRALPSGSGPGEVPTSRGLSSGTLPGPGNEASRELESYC

B1: mt-385 (peptide)
peptide: Y[Aib]QGTFISDK([γGlu-γGlu-Palmitoyl])SIYLDKQAA[Aib]EFVNWLLAGGPSSGAPPPS-NH2
modifications: N-terminus assumed
SMILES: CCCCCCCCCCCCCCCC(=O)N[C@@H](CCC(=O)N[C@@H](CCC(=O)NCCCC[C@H](NC(=O)[C@H](CC(=O)O)NC(=O)[C@H](CO)NC(=O)[C@@H](NC(=O)[C@H](Cc1ccccc1)NC(=O)[C@@H](NC(=O)CNC(=O)[C@H](CCC(N)=O)NC(=O)C(C)(C)NC(=O)[C@@H](N)Cc1ccc(O)cc1)[C@@H](C)O)[C@@H](C)CC)C(=O)N[C@@H](CO)C(=O)N[C@H](C(=O)N[C@@H](Cc1ccc(O)cc1)C(=O)N[C@@H](CC(C)C)C(=O)N[C@@H](CC(=O)O)C(=O)N[C@@H](CCCCN)C(=O)N[C@@H](CCC(N)=O)C(=O)N[C@@H](C)C(=O)N[C@@H](C)C(=O)NC(C)(C)C(=O)N[C@@H](CCC(=O)O)C(=O)N[C@@H](Cc1ccccc1)C(=O)N[C@H](C(=O)N[C@@H](CC(N)=O)C(=O)N[C@@H](Cc1c[nH]c2ccccc12)C(=O)N[C@@H](CC(C)C)C(=O)N[C@@H](CC(C)C)C(=O)N[C@@H](C)C(=O)NCC(=O)NCC(=O)N1CCC[C@H]1C(=O)N[C@@H](CO)C(=O)N[C@@H](CO)C(=O)NCC(=O)N[C@@H](C)C(=O)N1CCC[C@H]1C(=O)N1CCC[C@H]1C(=O)N1CCC[C@H]1C(=O)N[C@@H](CO)C(N)=O)C(C)C)[C@@H](C)CC)C(=O)O)C(=O)O
B2: HSDab(Ac)…ibRRATDFVTWLLDE (peptide)
peptide: HS[Dab](Ac)GTFTSDYSKYLD[Aib]RRATDFVTWLLDE
B3: HSDab(Ac)…ibRRASDFVSWLLDE (peptide)
peptide: HS[Dab](Ac)GTFTSDYSKYLD[Aib]RRASDFVSWLLDE
B4: mt-384 (peptide)
peptide: Y[Aib]QGTFTSDK([γGlu-γGlu-Palmitoyl])SIYLDKQAA[Aib]EFVNWLLAGGPSSGAPPPS-NH2
modifications: N-terminus assumed
SMILES: CCCCCCCCCCCCCCCC(=O)N[C@@H](CCC(=O)N[C@@H](CCC(=O)NCCCC[C@H](NC(=O)[C@H](CC(=O)O)NC(=O)[C@H](CO)NC(=O)[C@@H](NC(=O)[C@H](Cc1ccccc1)NC(=O)[C@@H](NC(=O)CNC(=O)[C@H](CCC(N)=O)NC(=O)C(C)(C)NC(=O)[C@@H](N)Cc1ccc(O)cc1)[C@@H](C)O)[C@@H](C)O)C(=O)N[C@@H](CO)C(=O)N[C@H](C(=O)N[C@@H](Cc1ccc(O)cc1)C(=O)N[C@@H](CC(C)C)C(=O)N[C@@H](CC(=O)O)C(=O)N[C@@H](CCCCN)C(=O)N[C@@H](CCC(N)=O)C(=O)N[C@@H](C)C(=O)N[C@@H](C)C(=O)NC(C)(C)C(=O)N[C@@H](CCC(=O)O)C(=O)N[C@@H](Cc1ccccc1)C(=O)N[C@H](C(=O)N[C@@H](CC(N)=O)C(=O)N[C@@H](Cc1c[nH]c2ccccc12)C(=O)N[C@@H](CC(C)C)C(=O)N[C@@H](CC(C)C)C(=O)N[C@@H](C)C(=O)NCC(=O)NCC(=O)N1CCC[C@H]1C(=O)N[C@@H](CO)C(=O)N[C@@H](CO)C(=O)NCC(=O)N[C@@H](C)C(=O)N1CCC[C@H]1C(=O)N1CCC[C@H]1C(=O)N1CCC[C@H]1C(=O)N[C@@H](CO)C(N)=O)C(C)C)[C@@H](C)CC)C(=O)O)C(=O)O

How the values were obtained:
Experiment in all cases: cell-based or functional assay
[1] = biological target: T1, GIP receptor
[2] = biological target: GLP-1 receptor (UniProt P43220 24-463, limits assumed)
[3] = biological target: T2, glucagon receptor (UniProt P47871 26-477, limits assumed)
T2 sequence (P47871 26-477 limits assumed): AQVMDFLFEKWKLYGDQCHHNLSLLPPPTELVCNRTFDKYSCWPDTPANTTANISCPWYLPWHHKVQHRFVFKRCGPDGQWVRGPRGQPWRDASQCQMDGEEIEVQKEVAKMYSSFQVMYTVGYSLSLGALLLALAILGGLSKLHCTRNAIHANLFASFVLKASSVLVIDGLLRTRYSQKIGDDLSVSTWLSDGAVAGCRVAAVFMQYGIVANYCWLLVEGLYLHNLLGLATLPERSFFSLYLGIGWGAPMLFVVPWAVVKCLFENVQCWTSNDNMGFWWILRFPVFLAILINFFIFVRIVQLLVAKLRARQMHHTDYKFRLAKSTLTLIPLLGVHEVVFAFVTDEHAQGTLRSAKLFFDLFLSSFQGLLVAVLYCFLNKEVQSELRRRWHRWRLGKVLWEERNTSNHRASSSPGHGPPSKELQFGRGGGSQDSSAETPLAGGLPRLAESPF

[4] = biological target: T2, glucagon receptor; remark: listed apart in the source

Binder | % Relative activity at the Receptor for GIP [1] [%] | % Relative activity at the Receptor for GLP-1 [2] [%] | % Relative activity at the Receptor for Glucagon [3] [%] | % activity* [4] [%] | EC50 (nM) at Glucagon Receptor [4] [nM]
B1 | 715 | 3.18 | 239 |  | 
B2 |  |  |  | 46 | 0.057
B3 |  |  |  | 54 | 0.048
B4 | 808 | 349 | 228 |  | 
